In the supplement of paper PMC10065799, “High-throughput profiling of sequence recognition by tyrosine kinases and SH2 domains using bacterial peptide display” (eLife, 2023):

Legend:
AncSZ = experiment: phosphorylation enrichment, bacterial display (enrichment ratio); higher = better substrate or ligand; peptides without Tyr show the background
EPHB1 = EPHB1 (UniProt P54762); experiment: as above
EPHB2 = EPHB2 (UniProt P29323); experiment: as above
FGFR1 = FGFR1 (UniProt P11362); experiment: as above
Chain of FGFR1 (P11362 whole entry, looked up): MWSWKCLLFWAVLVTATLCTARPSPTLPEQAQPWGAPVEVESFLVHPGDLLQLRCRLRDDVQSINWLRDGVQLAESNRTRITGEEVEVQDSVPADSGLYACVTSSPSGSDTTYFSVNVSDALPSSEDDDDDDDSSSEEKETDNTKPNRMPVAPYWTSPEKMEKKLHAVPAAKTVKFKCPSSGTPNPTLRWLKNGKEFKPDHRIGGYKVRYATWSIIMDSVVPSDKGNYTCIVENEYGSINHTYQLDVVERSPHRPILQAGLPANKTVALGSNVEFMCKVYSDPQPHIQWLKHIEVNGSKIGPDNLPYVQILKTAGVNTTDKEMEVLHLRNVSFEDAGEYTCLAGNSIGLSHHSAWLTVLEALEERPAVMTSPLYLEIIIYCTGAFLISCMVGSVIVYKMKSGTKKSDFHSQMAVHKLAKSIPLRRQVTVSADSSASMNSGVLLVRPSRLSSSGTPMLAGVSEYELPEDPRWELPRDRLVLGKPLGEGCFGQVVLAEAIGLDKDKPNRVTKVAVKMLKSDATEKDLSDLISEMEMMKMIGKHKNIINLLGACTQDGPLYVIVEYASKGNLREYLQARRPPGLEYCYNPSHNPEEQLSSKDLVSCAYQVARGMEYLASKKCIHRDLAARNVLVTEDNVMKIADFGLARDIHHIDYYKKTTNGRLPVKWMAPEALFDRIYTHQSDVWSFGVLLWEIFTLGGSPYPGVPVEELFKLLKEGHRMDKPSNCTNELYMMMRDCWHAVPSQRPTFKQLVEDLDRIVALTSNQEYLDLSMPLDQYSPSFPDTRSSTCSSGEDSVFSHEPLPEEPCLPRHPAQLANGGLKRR

FGFR3 = FGFR3 (UniProt P22607); experiment: as above
Chain of FGFR3 (P22607 whole entry, looked up): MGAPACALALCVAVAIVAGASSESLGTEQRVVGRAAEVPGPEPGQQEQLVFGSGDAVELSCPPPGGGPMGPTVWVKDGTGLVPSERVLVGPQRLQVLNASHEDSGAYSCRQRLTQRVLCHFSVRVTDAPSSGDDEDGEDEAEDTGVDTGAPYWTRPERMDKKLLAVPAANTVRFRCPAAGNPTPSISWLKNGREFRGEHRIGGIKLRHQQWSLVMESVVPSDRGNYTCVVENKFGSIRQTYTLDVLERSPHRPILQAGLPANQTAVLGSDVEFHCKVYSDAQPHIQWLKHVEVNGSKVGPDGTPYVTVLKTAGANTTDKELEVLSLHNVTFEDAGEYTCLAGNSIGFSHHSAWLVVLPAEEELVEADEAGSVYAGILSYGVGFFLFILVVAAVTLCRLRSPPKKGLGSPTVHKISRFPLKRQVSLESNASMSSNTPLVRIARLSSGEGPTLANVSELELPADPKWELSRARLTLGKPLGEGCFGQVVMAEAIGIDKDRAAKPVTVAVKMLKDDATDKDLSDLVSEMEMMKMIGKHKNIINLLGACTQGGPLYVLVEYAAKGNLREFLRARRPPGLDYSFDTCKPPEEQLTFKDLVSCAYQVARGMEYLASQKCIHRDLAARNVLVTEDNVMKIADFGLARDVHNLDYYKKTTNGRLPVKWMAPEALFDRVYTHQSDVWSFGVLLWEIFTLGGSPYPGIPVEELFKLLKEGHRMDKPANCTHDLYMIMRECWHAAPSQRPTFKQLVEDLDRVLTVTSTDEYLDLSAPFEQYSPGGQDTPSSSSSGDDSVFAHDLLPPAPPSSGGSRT

Fer (mouse) = experiment: as above
Fes = Fes (UniProt P07332); experiment: as above
Chain of Fes (P07332 whole entry, looked up): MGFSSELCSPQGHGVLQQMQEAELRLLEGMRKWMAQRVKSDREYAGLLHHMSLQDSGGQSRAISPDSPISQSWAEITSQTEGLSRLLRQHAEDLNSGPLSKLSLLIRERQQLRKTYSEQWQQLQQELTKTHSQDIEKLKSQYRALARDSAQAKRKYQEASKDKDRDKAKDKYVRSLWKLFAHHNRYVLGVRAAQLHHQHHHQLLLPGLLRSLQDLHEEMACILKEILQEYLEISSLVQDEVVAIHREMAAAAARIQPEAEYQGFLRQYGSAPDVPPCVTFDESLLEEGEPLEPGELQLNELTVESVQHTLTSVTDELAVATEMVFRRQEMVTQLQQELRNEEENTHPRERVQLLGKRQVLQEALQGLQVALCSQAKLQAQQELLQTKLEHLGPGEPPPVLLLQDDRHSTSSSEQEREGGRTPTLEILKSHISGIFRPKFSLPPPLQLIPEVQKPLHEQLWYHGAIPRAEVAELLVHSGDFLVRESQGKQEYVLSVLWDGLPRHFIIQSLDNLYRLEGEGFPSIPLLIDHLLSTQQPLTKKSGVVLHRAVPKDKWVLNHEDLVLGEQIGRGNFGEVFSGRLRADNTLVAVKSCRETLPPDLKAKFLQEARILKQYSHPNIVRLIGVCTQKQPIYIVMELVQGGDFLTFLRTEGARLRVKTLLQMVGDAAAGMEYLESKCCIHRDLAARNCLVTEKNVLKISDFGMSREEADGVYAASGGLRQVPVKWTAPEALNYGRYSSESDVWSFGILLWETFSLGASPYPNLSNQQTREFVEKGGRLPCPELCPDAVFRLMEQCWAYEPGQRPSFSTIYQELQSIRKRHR

Fyn = Fyn (UniProt P06241); experiment: as above
Hck = Hck (UniProt P08631); experiment: as above
Chain of Hck (P08631 whole entry, looked up): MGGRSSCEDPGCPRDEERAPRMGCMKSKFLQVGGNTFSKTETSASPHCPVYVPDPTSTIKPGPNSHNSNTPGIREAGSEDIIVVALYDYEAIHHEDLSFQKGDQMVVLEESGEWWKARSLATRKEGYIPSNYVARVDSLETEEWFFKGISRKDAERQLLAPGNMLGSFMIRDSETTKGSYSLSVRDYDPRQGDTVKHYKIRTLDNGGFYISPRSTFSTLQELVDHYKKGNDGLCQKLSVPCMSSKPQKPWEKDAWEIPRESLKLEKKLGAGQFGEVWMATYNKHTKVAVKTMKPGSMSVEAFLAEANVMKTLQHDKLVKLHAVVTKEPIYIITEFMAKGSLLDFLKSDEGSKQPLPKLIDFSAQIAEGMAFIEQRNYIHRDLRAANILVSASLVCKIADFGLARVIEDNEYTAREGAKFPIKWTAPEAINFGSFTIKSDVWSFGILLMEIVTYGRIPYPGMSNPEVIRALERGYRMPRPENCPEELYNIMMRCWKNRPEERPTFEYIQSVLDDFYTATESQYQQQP

Jak2 = Jak2 (UniProt O60674); experiment: as above
MERTK = MERTK (UniProt Q12866); experiment: as above
c-Abl (mouse) = experiment: as above
c-Src = experiment: as above
Grb2 SH2 = Grb2 SH2 (UniProt P62993); experiment: SH2 binding enrichment of the phosphorylated peptide, bacterial display (enrichment ratio); higher = better substrate or ligand; peptides without Tyr show the background
SHP2-C SH2 = experiment: as above
c-Src SH2 = experiment: as above
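Wherever SH2 binding enrichment of the phosphorylated peptide, bacterial display is given: peptide library displayed on the E. coli surface as eCPX fusions, selected cells deep-sequenced, score is each peptide's frequency after selection divided by its frequency in the input.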
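Wherever phosphorylation enrichment, bacterial display is given: 11-residue human phosphosite peptides and single-mutation variants displayed on the E. coli surface, counted by deep sequencing, each peptide's frequency after selection divided by its frequency in the unselected input library; frequency after pTyr selection over input frequency; kinase dosed for 20-30% of maximal phosphorylation in three min.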

Chain of EPHB1 (P54762 whole entry, looked up): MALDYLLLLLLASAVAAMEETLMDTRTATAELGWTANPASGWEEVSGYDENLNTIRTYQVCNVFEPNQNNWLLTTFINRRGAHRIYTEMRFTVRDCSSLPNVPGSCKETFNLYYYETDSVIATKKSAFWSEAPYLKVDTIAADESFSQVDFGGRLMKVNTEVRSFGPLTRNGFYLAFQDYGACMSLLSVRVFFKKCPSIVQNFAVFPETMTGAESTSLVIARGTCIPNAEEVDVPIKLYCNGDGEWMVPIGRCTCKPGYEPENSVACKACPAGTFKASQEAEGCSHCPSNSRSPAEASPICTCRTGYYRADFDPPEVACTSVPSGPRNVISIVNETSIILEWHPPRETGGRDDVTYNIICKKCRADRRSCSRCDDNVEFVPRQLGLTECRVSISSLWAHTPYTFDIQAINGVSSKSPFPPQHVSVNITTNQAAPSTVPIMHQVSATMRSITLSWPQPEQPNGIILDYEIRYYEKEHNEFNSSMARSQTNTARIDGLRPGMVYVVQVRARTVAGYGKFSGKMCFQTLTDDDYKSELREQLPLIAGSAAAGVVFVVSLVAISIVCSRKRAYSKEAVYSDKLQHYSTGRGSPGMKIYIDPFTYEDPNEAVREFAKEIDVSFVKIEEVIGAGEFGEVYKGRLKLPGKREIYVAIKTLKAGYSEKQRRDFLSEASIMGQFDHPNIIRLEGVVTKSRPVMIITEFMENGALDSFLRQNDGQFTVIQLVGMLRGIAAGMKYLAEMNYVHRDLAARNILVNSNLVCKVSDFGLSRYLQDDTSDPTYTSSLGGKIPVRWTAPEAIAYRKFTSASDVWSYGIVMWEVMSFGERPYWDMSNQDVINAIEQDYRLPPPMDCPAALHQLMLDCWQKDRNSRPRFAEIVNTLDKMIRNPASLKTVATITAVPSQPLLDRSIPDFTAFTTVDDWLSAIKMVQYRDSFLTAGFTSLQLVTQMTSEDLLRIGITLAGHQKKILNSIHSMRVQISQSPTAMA
Chain of EPHB2 (P29323 whole entry, looked up): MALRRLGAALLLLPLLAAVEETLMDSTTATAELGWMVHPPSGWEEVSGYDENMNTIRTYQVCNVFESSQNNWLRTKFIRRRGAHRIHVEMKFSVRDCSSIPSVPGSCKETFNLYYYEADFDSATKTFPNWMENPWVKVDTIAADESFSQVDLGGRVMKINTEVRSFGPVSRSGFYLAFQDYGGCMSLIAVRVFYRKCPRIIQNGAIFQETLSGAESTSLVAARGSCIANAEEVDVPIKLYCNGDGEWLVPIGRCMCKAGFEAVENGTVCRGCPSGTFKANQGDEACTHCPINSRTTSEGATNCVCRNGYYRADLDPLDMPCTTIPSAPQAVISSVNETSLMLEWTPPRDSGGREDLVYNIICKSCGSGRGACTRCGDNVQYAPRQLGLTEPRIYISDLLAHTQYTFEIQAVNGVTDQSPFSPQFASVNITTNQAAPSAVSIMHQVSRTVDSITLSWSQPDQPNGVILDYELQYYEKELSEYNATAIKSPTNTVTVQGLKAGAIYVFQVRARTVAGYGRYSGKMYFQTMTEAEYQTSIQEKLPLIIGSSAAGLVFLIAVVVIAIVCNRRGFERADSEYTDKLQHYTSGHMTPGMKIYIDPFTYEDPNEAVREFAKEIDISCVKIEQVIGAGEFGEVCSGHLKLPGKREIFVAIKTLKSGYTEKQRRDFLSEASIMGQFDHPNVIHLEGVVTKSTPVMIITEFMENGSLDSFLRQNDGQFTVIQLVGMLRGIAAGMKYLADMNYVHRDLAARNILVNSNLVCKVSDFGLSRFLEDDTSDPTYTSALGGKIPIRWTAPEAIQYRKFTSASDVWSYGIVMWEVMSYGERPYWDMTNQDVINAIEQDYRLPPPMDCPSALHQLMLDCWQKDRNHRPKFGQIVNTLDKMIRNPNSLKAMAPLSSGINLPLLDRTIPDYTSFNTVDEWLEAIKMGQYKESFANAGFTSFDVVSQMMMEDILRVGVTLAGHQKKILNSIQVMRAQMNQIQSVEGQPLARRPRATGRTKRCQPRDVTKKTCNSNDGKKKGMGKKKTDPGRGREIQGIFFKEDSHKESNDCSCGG

| Sequence | phosphorylation enrichment (AncSZ) | phosphorylation enrichment (EPHB1) | phosphorylation enrichment (EPHB2) | phosphorylation enrichment (FGFR1) | phosphorylation enrichment (FGFR3) | phosphorylation enrichment (Fer (mouse)) | phosphorylation enrichment (Fes) | phosphorylation enrichment (Fyn) | phosphorylation enrichment (Hck) | phosphorylation enrichment (Jak2) | phosphorylation enrichment (MERTK) | phosphorylation enrichment (c-Abl (mouse)) | phosphorylation enrichment (c-Src) | SH2 binding enrichment (Grb2 SH2) | SH2 binding enrichment (SHP2-C SH2) | SH2 binding enrichment (c-Src SH2) |
| --- | --- | --- | --- | --- | --- | --- | --- | --- | --- | --- | --- | --- | --- | --- | --- | --- |
| PEVSGYCHCAD [TG_Y234] | 2.1 | 3.57 | 1.4 | 1.11 | 1.56 | 1.14 | 2.79 | 0.976 | 1.08 | 2.21 | 0.936 | 1.83 | 1.2 | 0.912 | 0.549 | 0.565 |
| PFQGAYLKINK [MYO1B_Y967_E969K] | 1.1 | 0.539 | 0.571 | 0.417 | 0.909 | 0.853 | 1.52 | 0.582 | 0.643 | 1.18 | 0.461 | 0.88 | 0.319 | 1.11 | 0.908 | 1.61 |
| PFTRNYFVQAV [CYBA_Y87_R90Q_YF] | 0.963 | 0.601 | 0.747 | 1.16 | 0.905 | 1.25 | 1.2 | 0.943 | 0.979 | 0.6 | 0.763 | 0.65 | 0.353 | 0.634 | 0.467 | 0.533 |
| PGAGHYEDTIL [ALK_Y1604] | 1.15 | 0.871 | 0.597 | 0.664 | 0.881 | 6.12 | 1.16 | 0.809 | 0.786 | 0.896 | 0.597 | 0.765 | 0.391 | 0.797 | 0.559 | 3.04 |
| PGGNIYISPLK [RB1_Y805] | 0.902 | 0.4 | 0.571 | 0.545 | 0.526 | 0.804 | 0.58 | 0.804 | 2.65 | 0.529 | 0.685 | 1.75 | 0.757 | 1.39 | 1.72 | 1.04 |
| PGIRMYRVQYN [LRFN1_Y454_Q455R] | 0.759 | 0.744 | 0.586 | 0.58 | 0.713 | 0.989 | 1.08 | 0.486 | 0.62 | 0.626 | 0.527 | 0.675 | 0.473 | 0.838 | 0.714 | 0.507 |
| PGLRGYPGLSG [COL4A2_Y306] | 0.709 | 0.894 | 0.442 | 0.621 | 0.468 | 0.449 | 0.87 | 0.481 | 0.505 | 1.45 | 0.599 | 0.508 | 0.674 | 0.958 | 0.698 | 0.383 |
| PGQRVYVVAES [SHH_Y316_R321S] | 1.06 | 0.695 | 0.507 | 0.494 | 0.848 | 0.728 | 1.45 | 0.538 | 0.748 | 1.07 | 0.377 | 0.896 | 0.546 | 0.756 | 0.892 | 0.55 |
| PIPAAYNKYDQ [CDC73_Y290_R292K] | 0.707 | 0.417 | 0.599 | 0.608 | 0.448 | 0.394 | 0.904 | 0.46 | 0.595 | 0.754 | 0.617 | 0.944 | 0.689 | 0.39 | 1.33 | 0.478 |
| PKKKQYTSIHH [APP_Y728_L723P] | 0.646 | 0.441 | 0.646 | 0.71 | 0.928 | 0.595 | 0.849 | 0.757 | 0.755 | 0.85 | 0.656 | 0.617 | 0.457 | 1.01 | 0.946 | 0.936 |
| PLYGEYFTLQI [TP53_Y327_D324Y] | 4.94 | 15.8 | 18.6 | 17.6 | 14.9 | 3.72 | 2.44 | 16.3 | 11.6 | 15.3 | 9.96 | 9.14 | 12.6 | 0.816 | 0.809 | 0.444 |
| PNATLYKMSSI [SERPINA7_Y40] | 0.592 | 0.456 | 0.325 | 0.406 | 0.495 | 0.397 | 0.55 | 0.35 | 0.401 | 0.358 | 0.361 | 0.472 | 0.349 | 0.85 | 0.375 | 0.395 |
| PNLILYGDFRQ [MYH7_Y715_R712L] | 1.09 | 0.688 | 0.602 | 0.552 | 0.762 | 0.72 | 1.28 | 5.16 | 2.87 | 0.75 | 0.465 | 0.766 | 2.98 | 0.944 | 0.823 | 0.482 |
| PPNSPYIGSSP [KCNT1_Y740] | 0.501 | 0.493 | 0.468 | 0.537 | 0.362 | 0.382 | 0.557 | 0.464 | 0.457 | 0.417 | 0.422 | 0.572 | 0.352 | 0.783 | 0.557 | 0.371 |
| PPNSPYMGSSP [KCNT1_Y740_I741M] | 1.01 | 0.497 | 0.536 | 0.632 | 0.818 | 0.612 | 0.868 | 0.546 | 0.521 | 0.825 | 0.468 | 0.782 | 0.59 | 0.869 | 0.759 | 0.481 |
| PPSELYFVKVD [TERT_Y707_P704S] | 1.19 | 0.699 | 0.965 | 0.815 | 0.92 | 0.815 | 1.63 | 0.784 | 1.95 | 0.925 | 1.82 | 0.733 | 1.26 | 0.614 | 0.679 | 0.405 |
| PPSLSYLSFEG [EXOSC3_Y143_A139P] | 0.756 | 0.556 | 0.448 | 0.595 | 0.713 | 0.451 | 0.886 | 0.464 | 0.517 | 1.36 | 0.602 | 0.702 | 1.1 | 1.07 | 0.814 | 0.504 |
